Source: US20200079833A1 (AstraZeneca / MedImmune, published 2020)
Starred links: 1 amine or outer side, 2 acyl side, 3 side chain; linkers in the order of their positions; H or OH if unused. Non-standard residues stand in square brackets, D forms with d. Groups on a side chain read outwards from the residue. Primed or numbered codes have the meaning given here. No end group written: not given here. *: point of attachment. γGlu = O=C(O)[C@H](CCC(=O)[*:2])N[*:1]; Stearoyl = CCCCCCCCCCCCCCCCCC(=O)*; αMeF = C[C@](N)(Cc1ccccc1)C(=O)O; αMeK = C[C@](N)(CCCCN)C(=O)O; Lauroyl = CCCCCCCCCCCC(=O)*; αMeS = C[C@](N)(CO)C(=O)O; PEG2′ = not defined here; Aib = CC(C)(N)C(=O)O; Ahx = NCCCCCC(=O)O

Tests used:
Assay in all cases: cell-based or functional assay
[1] = biological target: GLP-1 receptor (GLP-1R) (human, UniProt P43220 24-463)
[2] = biological target: glucagon receptor (GCGR) (human, UniProt P47871 26-477)
Sequence of glucagon receptor (GCGR) (P47871 26-477): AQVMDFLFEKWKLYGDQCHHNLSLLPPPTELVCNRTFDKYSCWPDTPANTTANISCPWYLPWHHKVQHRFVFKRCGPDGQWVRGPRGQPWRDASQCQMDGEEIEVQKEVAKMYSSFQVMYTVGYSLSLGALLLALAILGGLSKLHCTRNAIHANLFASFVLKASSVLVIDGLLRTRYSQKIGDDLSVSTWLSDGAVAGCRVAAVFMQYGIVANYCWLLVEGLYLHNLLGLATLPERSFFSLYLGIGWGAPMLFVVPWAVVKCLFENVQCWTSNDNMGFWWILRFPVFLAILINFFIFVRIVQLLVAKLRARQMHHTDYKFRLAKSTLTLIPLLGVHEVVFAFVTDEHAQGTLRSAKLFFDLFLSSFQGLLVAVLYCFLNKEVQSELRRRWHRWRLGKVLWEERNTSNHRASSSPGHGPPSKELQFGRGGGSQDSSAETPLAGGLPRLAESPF

[3] = biological target: T1, glucose-dependent insulinotropic peptide (gastric inhibitory polypeptide) receptor (GIPR) (human, UniProt P48546 22-466)
T1 sequence (looked up): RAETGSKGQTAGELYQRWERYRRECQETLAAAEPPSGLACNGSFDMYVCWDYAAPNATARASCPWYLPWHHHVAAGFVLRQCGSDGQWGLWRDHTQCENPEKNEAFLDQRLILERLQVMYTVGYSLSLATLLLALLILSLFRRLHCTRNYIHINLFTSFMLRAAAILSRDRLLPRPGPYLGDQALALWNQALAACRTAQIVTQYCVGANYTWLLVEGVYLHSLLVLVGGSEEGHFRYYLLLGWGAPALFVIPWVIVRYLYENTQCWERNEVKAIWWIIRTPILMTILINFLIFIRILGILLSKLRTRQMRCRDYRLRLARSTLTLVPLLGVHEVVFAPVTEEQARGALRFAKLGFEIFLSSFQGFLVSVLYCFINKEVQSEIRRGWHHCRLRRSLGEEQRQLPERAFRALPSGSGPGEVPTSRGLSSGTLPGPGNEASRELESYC

B1: SEQ ID NO 165 (peptide)
peptide: H[Aib]EGS[αMeF]TSDV[αMeS]S[αMeF]LEGEAA[αMeK]E[αMeF]IA[αMeF]VVK([γGlu-γGlu-Lauroyl])GG-NH2
modifications: N-terminus assumed
SMILES: CCCCCCCCCCCC(=O)N[C@@H](CCC(=O)N[C@@H](CCC(=O)NCCCC[C@H](NC(=O)[C@@H](NC(=O)[C@@H](NC(=O)[C@](C)(Cc1ccccc1)NC(=O)[C@H](C)NC(=O)[C@@H](NC(=O)[C@](C)(Cc1ccccc1)NC(=O)[C@H](CCC(=O)O)NC(=O)[C@](C)(CCCCN)NC(=O)[C@H](C)NC(=O)[C@H](C)NC(=O)[C@H](CCC(=O)O)NC(=O)CNC(=O)[C@H](CCC(=O)O)NC(=O)[C@H](CC(C)C)NC(=O)[C@](C)(Cc1ccccc1)NC(=O)[C@H](CO)NC(=O)[C@](C)(CO)NC(=O)[C@@H](NC(=O)[C@H](CC(=O)O)NC(=O)[C@H](CO)NC(=O)[C@@H](NC(=O)[C@](C)(Cc1ccccc1)NC(=O)[C@H](CO)NC(=O)CNC(=O)[C@H](CCC(=O)O)NC(=O)C(C)(C)NC(=O)[C@@H](N)Cc1c[nH]cn1)[C@@H](C)O)C(C)C)[C@@H](C)CC)C(C)C)C(C)C)C(=O)NCC(=O)NCC(N)=O)C(=O)O)C(=O)O
[1]
  Primary assay EC50 (cAMP), GLP-1R n1: 0.014 nM
  Primary assay EC50 (cAMP), GLP-1R n2: 0.006 nM
  Primary assay EC50 (cAMP), Mean pM GLP-1R: 10.2 pM
[2]
  Primary assay EC50 (cAMP), Gluc-R, first run: 27 nM
  Primary assay EC50 (cAMP), Gluc-R, second run: 27 nM
[3]
  Primary assay EC50 (cAMP), GIP-R, first run: 27 nM
  Primary assay EC50 (cAMP), GIP-R, second run: 27 nM

B2: SEQ ID NO 167 (peptide)
peptide: H[Aib]EGS[αMeF]TSDV[αMeS]S[αMeF]LEGEAA[αMeK]E[αMeF]IA[αMeF]VVK([Ahx-Lauroyl])GG-NH2
modifications: N-terminus assumed
SMILES: CCCCCCCCCCCC(=O)NCCCCCC(=O)NCCCC[C@H](NC(=O)[C@@H](NC(=O)[C@@H](NC(=O)[C@](C)(Cc1ccccc1)NC(=O)[C@H](C)NC(=O)[C@@H](NC(=O)[C@](C)(Cc1ccccc1)NC(=O)[C@H](CCC(=O)O)NC(=O)[C@](C)(CCCCN)NC(=O)[C@H](C)NC(=O)[C@H](C)NC(=O)[C@H](CCC(=O)O)NC(=O)CNC(=O)[C@H](CCC(=O)O)NC(=O)[C@H](CC(C)C)NC(=O)[C@](C)(Cc1ccccc1)NC(=O)[C@H](CO)NC(=O)[C@](C)(CO)NC(=O)[C@@H](NC(=O)[C@H](CC(=O)O)NC(=O)[C@H](CO)NC(=O)[C@@H](NC(=O)[C@](C)(Cc1ccccc1)NC(=O)[C@H](CO)NC(=O)CNC(=O)[C@H](CCC(=O)O)NC(=O)C(C)(C)NC(=O)[C@@H](N)Cc1c[nH]cn1)[C@@H](C)O)C(C)C)[C@@H](C)CC)C(C)C)C(C)C)C(=O)NCC(=O)NCC(N)=O
[1]
  Primary assay EC50 (cAMP), GLP-1R n1: 0.013 nM
  Primary assay EC50 (cAMP), GLP-1R n2: 0.0069 nM
  Primary assay EC50 (cAMP), Mean pM GLP-1R: 10 pM
[2]
  Primary assay EC50 (cAMP), Gluc-R, first run: 29 nM
  Primary assay EC50 (cAMP), Gluc-R, second run: 29 nM
[3]
  Primary assay EC50 (cAMP), GIP-R, first run: 29 nM
  Primary assay EC50 (cAMP), GIP-R, second run: 29 nM

B3: SEQ ID NO 164 (peptide)
peptide: H[Aib]EGS[αMeF]TSDV[αMeS]S[αMeF]LEGEAA[αMeK]E[αMeF]IA[αMeF]VVK([γGlu-Lauroyl])GG-NH2
modifications: N-terminus assumed
SMILES: CCCCCCCCCCCC(=O)N[C@@H](CCC(=O)NCCCC[C@H](NC(=O)[C@@H](NC(=O)[C@@H](NC(=O)[C@](C)(Cc1ccccc1)NC(=O)[C@H](C)NC(=O)[C@@H](NC(=O)[C@](C)(Cc1ccccc1)NC(=O)[C@H](CCC(=O)O)NC(=O)[C@](C)(CCCCN)NC(=O)[C@H](C)NC(=O)[C@H](C)NC(=O)[C@H](CCC(=O)O)NC(=O)CNC(=O)[C@H](CCC(=O)O)NC(=O)[C@H](CC(C)C)NC(=O)[C@](C)(Cc1ccccc1)NC(=O)[C@H](CO)NC(=O)[C@](C)(CO)NC(=O)[C@@H](NC(=O)[C@H](CC(=O)O)NC(=O)[C@H](CO)NC(=O)[C@@H](NC(=O)[C@](C)(Cc1ccccc1)NC(=O)[C@H](CO)NC(=O)CNC(=O)[C@H](CCC(=O)O)NC(=O)C(C)(C)NC(=O)[C@@H](N)Cc1c[nH]cn1)[C@@H](C)O)C(C)C)[C@@H](C)CC)C(C)C)C(C)C)C(=O)NCC(=O)NCC(N)=O)C(=O)O
[1]
  Primary assay EC50 (cAMP), GLP-1R n1: 0.022 nM
  Primary assay EC50 (cAMP), GLP-1R n2: 0.0078 nM
  Primary assay EC50 (cAMP), Mean pM GLP-1R: 14.6 pM
[2]
  Primary assay EC50 (cAMP), Gluc-R, first run: 28 nM
  Primary assay EC50 (cAMP), Gluc-R, second run: 28 nM
[3]
  Primary assay EC50 (cAMP), GIP-R, first run: 28 nM
  Primary assay EC50 (cAMP), GIP-R, second run: 28 nM

## H[Aib]EGS[αMeF]TSDV[αMeS]S[αMeF]LEGEAAK([PEG2′-Stearoyl])E[αMeF]IA[αMeF]VV[αMeK]GG-NH2 [SEQ ID NO 161]
[1]
  Primary assay EC50 (cAMP), GLP-1R n1: 0.16 nM
  Primary assay EC50 (cAMP), GLP-1R n2: 0.062 nM
  Primary assay EC50 (cAMP), Mean pM GLP-1R: 112 pM
[2]
  Primary assay EC50 (cAMP), Gluc-R, first run: 27 nM
  Primary assay EC50 (cAMP), Gluc-R, second run: 27 nM
[3]
  Primary assay EC50 (cAMP), GIP-R, first run: 27 nM
  Primary assay EC50 (cAMP), GIP-R, second run: 27 nM

B4: SEQ ID NO 166 (peptide)
peptide: H[Aib]EGS[αMeF]TSDV[αMeS]S[αMeF]LEGEAA[αMeK]E[αMeF]IA[αMeF]VVK([γGlu-γGlu-γGlu-Lauroyl])GG-NH2
modifications: N-terminus assumed
SMILES: CCCCCCCCCCCC(=O)N[C@@H](CCC(=O)N[C@@H](CCC(=O)N[C@@H](CCC(=O)NCCCC[C@H](NC(=O)[C@@H](NC(=O)[C@@H](NC(=O)[C@](C)(Cc1ccccc1)NC(=O)[C@H](C)NC(=O)[C@@H](NC(=O)[C@](C)(Cc1ccccc1)NC(=O)[C@H](CCC(=O)O)NC(=O)[C@](C)(CCCCN)NC(=O)[C@H](C)NC(=O)[C@H](C)NC(=O)[C@H](CCC(=O)O)NC(=O)CNC(=O)[C@H](CCC(=O)O)NC(=O)[C@H](CC(C)C)NC(=O)[C@](C)(Cc1ccccc1)NC(=O)[C@H](CO)NC(=O)[C@](C)(CO)NC(=O)[C@@H](NC(=O)[C@H](CC(=O)O)NC(=O)[C@H](CO)NC(=O)[C@@H](NC(=O)[C@](C)(Cc1ccccc1)NC(=O)[C@H](CO)NC(=O)CNC(=O)[C@H](CCC(=O)O)NC(=O)C(C)(C)NC(=O)[C@@H](N)Cc1c[nH]cn1)[C@@H](C)O)C(C)C)[C@@H](C)CC)C(C)C)C(C)C)C(=O)NCC(=O)NCC(N)=O)C(=O)O)C(=O)O)C(=O)O
[1]
  Primary assay EC50 (cAMP), GLP-1R n1: 0.0072 nM
  Primary assay EC50 (cAMP), GLP-1R n2: 0.0027 nM
  Primary assay EC50 (cAMP), Mean pM GLP-1R: 4.9 pM
[2]
  Primary assay EC50 (cAMP), Gluc-R, first run: 26 nM
  Primary assay EC50 (cAMP), Gluc-R, second run: 26 nM
[3]
  Primary assay EC50 (cAMP), GIP-R, first run: 26 nM
  Primary assay EC50 (cAMP), GIP-R, second run: 26 nM

## H[Aib]EGS[αMeF]TSDV[αMeS]S[αMeF]LEGEAAK([PEG2′-PEG2′-Stearoyl])E[αMeF]IA[αMeF]VV[αMeK]GG-NH2 [SEQ ID NO 162]
[1]
  Primary assay EC50 (cAMP), GLP-1R n1: 0.053 nM
  Primary assay EC50 (cAMP), GLP-1R n2: 0.055 nM
  Primary assay EC50 (cAMP), Mean pM GLP-1R: 54 pM
[2]
  Primary assay EC50 (cAMP), Gluc-R, first run: 26 nM
  Primary assay EC50 (cAMP), Gluc-R, second run: 26 nM
[3]
  Primary assay EC50 (cAMP), GIP-R, first run: 26 nM
  Primary assay EC50 (cAMP), GIP-R, second run: 26 nM

B5: SEQ ID NO 168 (peptide)
peptide: H[Aib]EGS[αMeF]TSDV[αMeS]S[αMeF]LEGEAA[αMeK]E[αMeF]IA[αMeF]VVK([Ahx-Ahx-Lauroyl])GG-NH2
modifications: N-terminus assumed
SMILES: CCCCCCCCCCCC(=O)NCCCCCC(=O)NCCCCCC(=O)NCCCC[C@H](NC(=O)[C@@H](NC(=O)[C@@H](NC(=O)[C@](C)(Cc1ccccc1)NC(=O)[C@H](C)NC(=O)[C@@H](NC(=O)[C@](C)(Cc1ccccc1)NC(=O)[C@H](CCC(=O)O)NC(=O)[C@](C)(CCCCN)NC(=O)[C@H](C)NC(=O)[C@H](C)NC(=O)[C@H](CCC(=O)O)NC(=O)CNC(=O)[C@H](CCC(=O)O)NC(=O)[C@H](CC(C)C)NC(=O)[C@](C)(Cc1ccccc1)NC(=O)[C@H](CO)NC(=O)[C@](C)(CO)NC(=O)[C@@H](NC(=O)[C@H](CC(=O)O)NC(=O)[C@H](CO)NC(=O)[C@@H](NC(=O)[C@](C)(Cc1ccccc1)NC(=O)[C@H](CO)NC(=O)CNC(=O)[C@H](CCC(=O)O)NC(=O)C(C)(C)NC(=O)[C@@H](N)Cc1c[nH]cn1)[C@@H](C)O)C(C)C)[C@@H](C)CC)C(C)C)C(C)C)C(=O)NCC(=O)NCC(N)=O
[1]
  Primary assay EC50 (cAMP), GLP-1R n1: 0.0051 nM
  Primary assay EC50 (cAMP), GLP-1R n2: 0.0026 nM
  Primary assay EC50 (cAMP), Mean pM GLP-1R: 3.8 pM
[2]
  Primary assay EC50 (cAMP), Gluc-R, first run: 28 nM
  Primary assay EC50 (cAMP), Gluc-R, second run: 28 nM
[3]
  Primary assay EC50 (cAMP), GIP-R, first run: 28 nM
  Primary assay EC50 (cAMP), GIP-R, second run: 28 nM

## H[Aib]EGS[αMeF]TSDV[αMeS]S[αMeF]LEGEAAK([PEG2′-PEG2′-PEG2′-Stearoyl])E[αMeF]IA[αMeF]VV[αMeK]GG-NH2 [SEQ ID NO 163]
[1]
  Primary assay EC50 (cAMP), GLP-1R n1: 0.063 nM
  Primary assay EC50 (cAMP), GLP-1R n2: 0.049 nM
  Primary assay EC50 (cAMP), Mean pM GLP-1R: 56 pM
[2]
  Primary assay EC50 (cAMP), Gluc-R, first run: 25 nM
  Primary assay EC50 (cAMP), Gluc-R, second run: 25 nM
[3]
  Primary assay EC50 (cAMP), GIP-R, first run: 25 nM
  Primary assay EC50 (cAMP), GIP-R, second run: 25 nM
